In patent publication US20090011997A1 (THERATECHNOLOGIES, published 2009):
Bridge positions count the residues as written; N and C are the ends. Square brackets hold non-standard residues; d marks the D form. Ends that are not written are not given here. Nle = CCCC[C@H](N)C(=O)O

B1: bifunctional hormone of SEQ ID NO: 44 (peptide)
peptide: Ac-H[dF]RWGKPMCFGGRMGAQSGLGCNSFRY-NH2
modifications: disulfide 9-22
SMILES: CSCC[C@@H]1NC(=O)[C@H](CCCNC(=N)N)NC(=O)CNC(=O)CNC(=O)[C@H](Cc2ccccc2)NC(=O)[C@@H](NC(=O)[C@H](CCSC)NC(=O)[C@@H]2CCCN2C(=O)[C@H](CCCCN)NC(=O)CNC(=O)[C@H](Cc2c[nH]c3ccccc23)NC(=O)[C@H](CCCNC(=N)N)NC(=O)[C@@H](Cc2ccccc2)NC(=O)[C@H](Cc2c[nH]cn2)NC(C)=O)CSSC[C@@H](C(=O)N[C@@H](CC(N)=O)C(=O)N[C@@H](CO)C(=O)N[C@@H](Cc2ccccc2)C(=O)N[C@@H](CCCNC(=N)N)C(=O)N[C@@H](Cc2ccc(O)cc2)C(N)=O)NC(=O)CNC(=O)[C@H](CC(C)C)NC(=O)CNC(=O)[C@H](CO)NC(=O)[C@H](CCC(N)=O)NC(=O)[C@H](C)NC(=O)CNC1=O
B2: bifunctional hormone of SEQ ID NO: 35 (peptide)
peptide: Ac-H[dF]RWGKP[Nle]CFGGR[Nle]DRIGAQSGLGCNSFRY-NH2
modifications: disulfide 9-25
SMILES: CCCC[C@@H]1NC(=O)[C@H](CCCNC(=N)N)NC(=O)CNC(=O)CNC(=O)[C@H](Cc2ccccc2)NC(=O)[C@@H](NC(=O)[C@H](CCCC)NC(=O)[C@@H]2CCCN2C(=O)[C@H](CCCCN)NC(=O)CNC(=O)[C@H](Cc2c[nH]c3ccccc23)NC(=O)[C@H](CCCNC(=N)N)NC(=O)[C@@H](Cc2ccccc2)NC(=O)[C@H](Cc2c[nH]cn2)NC(C)=O)CSSC[C@@H](C(=O)N[C@@H](CC(N)=O)C(=O)N[C@@H](CO)C(=O)N[C@@H](Cc2ccccc2)C(=O)N[C@@H](CCCNC(=N)N)C(=O)N[C@@H](Cc2ccc(O)cc2)C(N)=O)NC(=O)CNC(=O)[C@H](CC(C)C)NC(=O)CNC(=O)[C@H](CO)NC(=O)[C@H](CCC(N)=O)NC(=O)[C@H](C)NC(=O)CNC(=O)[C@H]([C@@H](C)CC)NC(=O)[C@H](CCCNC(=N)N)NC(=O)[C@H](CC(=O)O)NC1=O
B3: bifunctional hormone of SEQ ID NO: 34 (peptide)
peptide: Ac-H[dF]RWGKP[Nle]CHFGGR[Nle]DRISCYR-NH2
modifications: disulfide 9-20
SMILES: CCCC[C@@H]1NC(=O)[C@H](CCCNC(=N)N)NC(=O)CNC(=O)CNC(=O)[C@H](Cc2ccccc2)NC(=O)[C@H](Cc2c[nH]cn2)NC(=O)[C@@H](NC(=O)[C@H](CCCC)NC(=O)[C@@H]2CCCN2C(=O)[C@H](CCCCN)NC(=O)CNC(=O)[C@H](Cc2c[nH]c3ccccc23)NC(=O)[C@H](CCCNC(=N)N)NC(=O)[C@@H](Cc2ccccc2)NC(=O)[C@H](Cc2c[nH]cn2)NC(C)=O)CSSC[C@@H](C(=O)N[C@@H](Cc2ccc(O)cc2)C(=O)N[C@@H](CCCNC(=N)N)C(N)=O)NC(=O)[C@H](CO)NC(=O)[C@H]([C@@H](C)CC)NC(=O)[C@H](CCCNC(=N)N)NC(=O)[C@H](CC(=O)O)NC1=O
B4: bifunctional hormone of SEQ ID NO: 33 (peptide)
peptide: Ac-H[dF]RWGKPMCFGGRMDRIGAQSGLGCNSFRY-NH2
modifications: disulfide 9-25
SMILES: CC[C@H](C)[C@@H]1NC(=O)[C@H](CCCNC(=N)N)NC(=O)[C@H](CC(=O)O)NC(=O)[C@H](CCSC)NC(=O)[C@H](CCCNC(=N)N)NC(=O)CNC(=O)CNC(=O)[C@H](Cc2ccccc2)NC(=O)[C@@H](NC(=O)[C@H](CCSC)NC(=O)[C@@H]2CCCN2C(=O)[C@H](CCCCN)NC(=O)CNC(=O)[C@H](Cc2c[nH]c3ccccc23)NC(=O)[C@H](CCCNC(=N)N)NC(=O)[C@@H](Cc2ccccc2)NC(=O)[C@H](Cc2c[nH]cn2)NC(C)=O)CSSC[C@@H](C(=O)N[C@@H](CC(N)=O)C(=O)N[C@@H](CO)C(=O)N[C@@H](Cc2ccccc2)C(=O)N[C@@H](CCCNC(=N)N)C(=O)N[C@@H](Cc2ccc(O)cc2)C(N)=O)NC(=O)CNC(=O)[C@H](CC(C)C)NC(=O)CNC(=O)[C@H](CO)NC(=O)[C@H](CCC(N)=O)NC(=O)[C@H](C)NC(=O)CNC1=O
B5: bifunctional hormone of SEQ ID NO: 39 (peptide)
peptide: Ac-H[dF]RWGRRSSCFGGRMDRIGAQSGLGCNSFRY-NH2
modifications: disulfide 10-26
SMILES: CC[C@H](C)[C@@H]1NC(=O)[C@H](CCCNC(=N)N)NC(=O)[C@H](CC(=O)O)NC(=O)[C@H](CCSC)NC(=O)[C@H](CCCNC(=N)N)NC(=O)CNC(=O)CNC(=O)[C@H](Cc2ccccc2)NC(=O)[C@@H](NC(=O)[C@H](CO)NC(=O)[C@H](CO)NC(=O)[C@H](CCCNC(=N)N)NC(=O)[C@H](CCCNC(=N)N)NC(=O)CNC(=O)[C@H](Cc2c[nH]c3ccccc23)NC(=O)[C@H](CCCNC(=N)N)NC(=O)[C@@H](Cc2ccccc2)NC(=O)[C@H](Cc2c[nH]cn2)NC(C)=O)CSSC[C@@H](C(=O)N[C@@H](CC(N)=O)C(=O)N[C@@H](CO)C(=O)N[C@@H](Cc2ccccc2)C(=O)N[C@@H](CCCNC(=N)N)C(=O)N[C@@H](Cc2ccc(O)cc2)C(N)=O)NC(=O)CNC(=O)[C@H](CC(C)C)NC(=O)CNC(=O)[C@H](CO)NC(=O)[C@H](CCC(N)=O)NC(=O)[C@H](C)NC(=O)CNC1=O
B6: bifunctional hormone of SEQ ID NO: 38 (peptide)
peptide: Ac-HFRWGRRSSCFGGRMDRIGAQSGLGCNSFRY-NH2
modifications: disulfide 10-26
SMILES: CC[C@H](C)[C@@H]1NC(=O)[C@H](CCCNC(=N)N)NC(=O)[C@H](CC(=O)O)NC(=O)[C@H](CCSC)NC(=O)[C@H](CCCNC(=N)N)NC(=O)CNC(=O)CNC(=O)[C@H](Cc2ccccc2)NC(=O)[C@@H](NC(=O)[C@H](CO)NC(=O)[C@H](CO)NC(=O)[C@H](CCCNC(=N)N)NC(=O)[C@H](CCCNC(=N)N)NC(=O)CNC(=O)[C@H](Cc2c[nH]c3ccccc23)NC(=O)[C@H](CCCNC(=N)N)NC(=O)[C@H](Cc2ccccc2)NC(=O)[C@H](Cc2c[nH]cn2)NC(C)=O)CSSC[C@@H](C(=O)N[C@@H](CC(N)=O)C(=O)N[C@@H](CO)C(=O)N[C@@H](Cc2ccccc2)C(=O)N[C@@H](CCCNC(=N)N)C(=O)N[C@@H](Cc2ccc(O)cc2)C(N)=O)NC(=O)CNC(=O)[C@H](CC(C)C)NC(=O)CNC(=O)[C@H](CO)NC(=O)[C@H](CCC(N)=O)NC(=O)[C@H](C)NC(=O)CNC1=O
B7: bifunctional hormone of SEQ ID NO: 46 (peptide)
peptide: Ac-H[dF]RWGPKPVQGSGCPGRKMDRISSSSGLGCKVLRRH-NH2
modifications: disulfide 14-30
SMILES: CC[C@H](C)[C@@H]1NC(=O)[C@H](CCCNC(=N)N)NC(=O)[C@H](CC(=O)O)NC(=O)[C@H](CCSC)NC(=O)[C@H](CCCCN)NC(=O)[C@H](CCCNC(=N)N)NC(=O)CNC(=O)[C@@H]2CCCN2C(=O)[C@@H](NC(=O)CNC(=O)[C@H](CO)NC(=O)CNC(=O)[C@H](CCC(N)=O)NC(=O)[C@@H](NC(=O)[C@@H]2CCCN2C(=O)[C@H](CCCCN)NC(=O)[C@@H]2CCCN2C(=O)CNC(=O)[C@H](Cc2c[nH]c3ccccc23)NC(=O)[C@H](CCCNC(=N)N)NC(=O)[C@@H](Cc2ccccc2)NC(=O)[C@H](Cc2c[nH]cn2)NC(C)=O)C(C)C)CSSC[C@@H](C(=O)N[C@@H](CCCCN)C(=O)N[C@H](C(=O)N[C@@H](CC(C)C)C(=O)N[C@@H](CCCNC(=N)N)C(=O)N[C@@H](CCCNC(=N)N)C(=O)N[C@@H](Cc2c[nH]cn2)C(N)=O)C(C)C)NC(=O)CNC(=O)[C@H](CC(C)C)NC(=O)CNC(=O)[C@H](CO)NC(=O)[C@H](CO)NC(=O)[C@H](CO)NC(=O)[C@H](CO)NC1=O
B8: bifunctional hormone of SEQ ID NO: 36 (peptide)
peptide: MEHFRWGRRSSCFGGRMDRIGAQSGLGCNSFRY-NH2
modifications: disulfide 12-28; N-terminus assumed
SMILES: CC[C@H](C)[C@@H]1NC(=O)[C@H](CCCNC(=N)N)NC(=O)[C@H](CC(=O)O)NC(=O)[C@H](CCSC)NC(=O)[C@H](CCCNC(=N)N)NC(=O)CNC(=O)CNC(=O)[C@H](Cc2ccccc2)NC(=O)[C@@H](NC(=O)[C@H](CO)NC(=O)[C@H](CO)NC(=O)[C@H](CCCNC(=N)N)NC(=O)[C@H](CCCNC(=N)N)NC(=O)CNC(=O)[C@H](Cc2c[nH]c3ccccc23)NC(=O)[C@H](CCCNC(=N)N)NC(=O)[C@H](Cc2ccccc2)NC(=O)[C@H](Cc2c[nH]cn2)NC(=O)[C@H](CCC(=O)O)NC(=O)[C@@H](N)CCSC)CSSC[C@@H](C(=O)N[C@@H](CC(N)=O)C(=O)N[C@@H](CO)C(=O)N[C@@H](Cc2ccccc2)C(=O)N[C@@H](CCCNC(=N)N)C(=O)N[C@@H](Cc2ccc(O)cc2)C(N)=O)NC(=O)CNC(=O)[C@H](CC(C)C)NC(=O)CNC(=O)[C@H](CO)NC(=O)[C@H](CCC(N)=O)NC(=O)[C@H](C)NC(=O)CNC1=O
B9: bifunctional hormone of SEQ ID NO: 45 (peptide)
peptide: Ac-H[dF]RWSPKMVQGSGCPGRKMDRISSSSGLGCKVLRRH-NH2
modifications: disulfide 14-30
SMILES: CC[C@H](C)[C@@H]1NC(=O)[C@H](CCCNC(=N)N)NC(=O)[C@H](CC(=O)O)NC(=O)[C@H](CCSC)NC(=O)[C@H](CCCCN)NC(=O)[C@H](CCCNC(=N)N)NC(=O)CNC(=O)[C@@H]2CCCN2C(=O)[C@@H](NC(=O)CNC(=O)[C@H](CO)NC(=O)CNC(=O)[C@H](CCC(N)=O)NC(=O)[C@@H](NC(=O)[C@H](CCSC)NC(=O)[C@H](CCCCN)NC(=O)[C@@H]2CCCN2C(=O)[C@H](CO)NC(=O)[C@H](Cc2c[nH]c3ccccc23)NC(=O)[C@H](CCCNC(=N)N)NC(=O)[C@@H](Cc2ccccc2)NC(=O)[C@H](Cc2c[nH]cn2)NC(C)=O)C(C)C)CSSC[C@@H](C(=O)N[C@@H](CCCCN)C(=O)N[C@H](C(=O)N[C@@H](CC(C)C)C(=O)N[C@@H](CCCNC(=N)N)C(=O)N[C@@H](CCCNC(=N)N)C(=O)N[C@@H](Cc2c[nH]cn2)C(N)=O)C(C)C)NC(=O)CNC(=O)[C@H](CC(C)C)NC(=O)CNC(=O)[C@H](CO)NC(=O)[C@H](CO)NC(=O)[C@H](CO)NC(=O)[C@H](CO)NC1=O

Legend:
[1] = target: MCR1 receptor (on MCR1 receptor-expressing B16-F1 cells) (UniProt Q01727 1-315); assay: cell-based or functional assay
ANP receptor (on ANP …) = target: ANP receptor (on ANP receptor-expressing LLC-PK1 cells); assay: cell-based or functional assay

MCR1 receptor (on MCR1 receptor-expressing B16-F1 cells), sequence (Q01727 whole entry): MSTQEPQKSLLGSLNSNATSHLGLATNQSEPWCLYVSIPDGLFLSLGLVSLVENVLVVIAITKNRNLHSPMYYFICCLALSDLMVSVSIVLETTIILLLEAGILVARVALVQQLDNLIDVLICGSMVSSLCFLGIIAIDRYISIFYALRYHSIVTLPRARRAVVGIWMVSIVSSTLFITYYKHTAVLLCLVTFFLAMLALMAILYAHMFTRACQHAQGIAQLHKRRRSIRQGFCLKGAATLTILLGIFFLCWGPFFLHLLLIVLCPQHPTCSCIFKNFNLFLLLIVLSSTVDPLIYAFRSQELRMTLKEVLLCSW

Binder | EC50 on the production of cAMP (BC16-F1 cells) [1] | EC50 on the production of cGMP (LLC-PK1 cells) (ANP receptor (on ANP …))
B1 | 1.2 nM | –
B2 | 31.4 nM | 216 nM
B3 | 62.5 nM | 132 nM
B4 | 10.4 nM | 69 nM
B5 | 11.5 nM | 52.1 nM
B6 | 259 nM | 6.9 nM
B7 | 28 nM | –
B8 | 49.1 nM | 33.1 nM
B9 | 365 nM | –
